Measured values: the DeepSol protein solubility set

Experiment: soluble on expression in E. coli; label from the status in PepcDB or PDB records
With “MSRLQLAIEERDEAIARAKHMEMSLKVLENINPEENDMTLQELLNRINNADTGIAIQKNGAIIVDRIYKTKECKMRITAEEMSALIEERDAALSKCKRLEQELHHVKEQNQTSANNMRHLTAENNQERALKAKLLSMQQARETAVQQYKKLEEEIQTLRVYYSLHKSLSQEENLKDQFNYTLSTYEEALKNRENIVSITQQQNEELATQLQQALTERANMELQLQHAREASQVANEKVQKLERLVDVLRKKVGTGTMRTVI” the “soluble on expression in E. coli” value was “soluble”. In the case of “MSRLVIPSHSPNEEGNVVRVTPESAGWEYVGFEVYVLAKGQTLRKETKDQEACLVLLKGKANISTKLERWEQIGLRMDVSEKVPPYSVYIPSNDFYEVQAVTDLELAVCLAPGKGTYPARLIPPSEVGVEIRGAGNIERRVHNILPESQPADSLLVVEVFTPEGNWSSYPPHKHDQDNLPHESYLEETYYHKINPDHGFMVQRVYTDDRSIDETMVVKNGDVVLVPKGYHPVSAPPGYEGYYLNVMAGPVRTWKFHNDPDHEWVMESKLAAKQK”, the “soluble on expression in E. coli” value is reported as “not soluble”. For “MSRNPFDDDYRPSAASSTMPVKSYTTMGHYSGEDEADYYEREIEKTLQESLDSTERSRRHLENSEKIGTSTAQQLLEQREKLENTEKNLDEIHRTTQMTQRNLNSLKSFFGGMFKNKFTKKPQEPTETPTVPQSKSASRLSETATNLSSGGGSATFSGPSGQRTLTESSRSAIKGTRWEAMDNQIDENLDMMSANLRNLQRLGADLGKEVDSQNEMLDRIQYKAERNDGIVRDQDKQMQKILGTGASTSQTTAESLTPSMDTSTKMSLMMKATSLWK”, the “soluble on expression in E. coli” value was “not soluble”. For “MSRNRVMSIDFQQLPHAGIRSLIPYVPGKSIEELAKEKGITDIIKLASNENPLGCSPLALSVIQTMSSHYIATYPSPWNHPLMSKLASYLKVKPEQLFLSNGSDYLFNILLNCFALHTDRHILTHDYAFSTYAIQANSLQIPINSVPIGHNWEVNITDIVNACNQQTGIIFIANPNNPTGVLIQQEEIKYLLEQIPKSTLLVLDEAYYEFAASQLTVNSLDWLEEHPNLVVTRTFSKIYGMAGLRLGYAIANPSIINILKRVQLPFIVNQVALAAAYAAIDDDDFIQSSLKMNNEGMLQLQAGFNELNIKYLPSSCNFLTFDCEEDSMALYNYLLDNGIIVRPLHAYKMNNFIRVTIGTKEQNSRFLTALKNFYL”, the “soluble on expression in E. coli” value was “not soluble”. For “MSRPKAIVRHGKRDTIVALLGWAGAVDRNVEKYAGIYQKKGYTTVQFTALAAVKGWGTKDGRNVDHLASTLDSVLINPSNRLVFHVFSMNGFIALTSLDSQFPELKAIEKCDGIFMDSCPACFSFSIENMQKHALVMNHVYDQLIKNSNFVLGNFYKVYKKWETARFGYQMIMDTMSIKAGLCTIEEANPFFYLLNHPHLPPILTSIFSDNDIVCSADEINLFNECAAKKSDKKRQIMATRLKDTAHVEHFRKYPKLYLEKMDEFLQKVEKLRNGGNSKL”, the “soluble on expression in E. coli” value was “not soluble”. For “MSRPRAKLTGNFPGCPVESALSFLDGKWKGVILYHLINEGTLRFNELRRHIPSVTQRMLTKQLRELEEAGLISRTVFPVVPPRVDYALTPLGETMRPVISALKSWGDAHVVCKNGEKYTRAPTVAEKAA”, the “soluble on expression in E. coli” value was “not soluble”. With “MSRRVEFDLSTEDHSDRRRTNTFSSDEDGVPNEVADYLVYFSRMVDEQNVPEILTLYDQAFPDLTERFFRDRMWPDENVVERIIGPGNKLFIILYKELYYRQLYARNTRGPLLVHRYESFMNYQELFSELLSSKDPIPLSLPNVWLWDIIDEFVYQFQAFCLYKANPGKRNADEVEDLINIEENQNAWNIYPVLNILYSLLSKSQIVEQLKALKEKRNPDSVADEFGQSDLYFKLGYFALIGLLRTHVLLGDYHQALKTVQYVDIDPKGIYNTVPTCLVTLHYFVGFSHLMMRNYGEATKMFVNCLLYIQRTKSVQNQQPSKKNFQYDVIGKTWDQLFHLLAICLAIQPQRIDESIASQLSERCGERMMHMANGNIDEFRNAFATGCPKFLSPTTVVYEGVNQSKEPLLRQTQSFLEGIESQMALPVLRGYLKLYTTLPTKKLASFMDVDDEHYDSFIGKLLTYKMIVNELGKEAGPSSADDDEPQTDIDFYVDRDMINIADTKVARHVGEHFIRHIQKLQEVQDVLKRLDIQKP” the “soluble on expression in E. coli” value was “not soluble”. With “MSSECDGGSKAVMNGLAPGSNGQDKDMDPTKICTGKGAVTLRASSSYRETPSSSPASPQETRQHESKPGLEPEPSSADEWRLSSSADANGNAQPSSLAAKGYRSVHPNLPSDKSQDSSPLLNEVSSSLIGTDSQAFPSVSKPSSAYPSTTIVNPTIVLLQHNREQQKRLSSLSDPVSERRVGEQDSAPTQEKPTSPGKAIEKRAKDDSRRVVKSTQDLSDVSMDEVGIPLRNTERSKDWYKTMFKQIHKLNRDDDSDLYSPRYSFSEDTKSPLSVPRSKSEMSYIDGEKVVKRSATLPLPARSSSLKSSSERNDWEPPDKKVDTRKYRAEPKSIYEYQPGKSSVLTNEKMSRDISPEEIDLKNEPWYKFFSELEFGKPTNLDKDLSLCQTELEADLEKMETLNKAPSANVPQSSAISPTPEISSETPGYIYSSNFHAVKRESDGAPGDLTSLENERQIYKSVLEGGDIPLQGLSGLKRPSSSASTKVHSRTFNTSNALGPVCKHKKPLSAAKACISEILPSKFKPRLSAPSALLQEQKSILLPSEKAQSCENLCVSGSLNDSKRGLPLQVGGSIENLLMRSRRDYDSKSSSTMSLQEYSTSGRRPCPLSRKAGMQFTMLYRDMHQINRSGLFLGSISSSSSVRDLASHFEKSSLALSRGELGPSQEGSEHIPKHTVSSRITAFEQLIQRSRSMPSLDLSGRLSKSPTPVLSRGSLTSARSAESLLESTKLHPKEMDGMNSSGVYASPTCSNMAHHALSFRGLVPSEPLSTCSDDVDRCSNISTDSREGSGGSVHGDFPKHRLNKCKGTCPASYTRFTTIRKHEQQQTSRQPEWRLDARGDKSTLLRNIYLMSPLPFRLKKPLHHHPRQPSPGDSSGLLVGQKPDLPSQPHQDQPPSGGKPVVPTRLSSRHTMARLSRSSEPSQERPTALEDYPRAINNGNSVPYSDHSLDRNNNPQSELAPSRGDSESPRHFIPADYLESTEEFIRRRHDDKEMRPARAKFDFKAQTLKELPLQKGDIVYIYKQIDQNWYEGEHHGRVGIFPRTYIELLPPAEKAQPKKLTPVQVLEYGEAIAKFNFNGDTQVEMSFRKGERITLLRQVDENWYEGRIPGTSRQGIFPITYVDVIKRPLVKNPVDYMDLPFSSSPSRSATASPQQPQAQQRRVTPDRSQTSQDLFSYQALYSYIPQNDDELELRDGDIVDVMEKCDDGWFVGTSRRTKQFGTFPGNYVKPLYL” the “soluble on expression in E. coli” value was “soluble”. For “MSSEEQDVKIVTSDDVEFIVSPKIANQSKLLADFVVLNQREPIPLKNVTSEIFKKVIEWCEYHAEDIPKPPDNVEEKRTDDIGEWDVEFLKVDKGTLFELVLAATYLDIKGLFNVTCKSIANSIKGKSPEEIRAVFNLGNETNME”, the “soluble on expression in E. coli” value was “not soluble”. With “MSSIVCHPILDSQNGIATDAVIKKQRPPPLVLSRPKDLIQEACQRLVLSDQQLRRIMQSMEKSMEQGLATSTKKVAVKMLPTYVDSVPNGTESGDFLALDLGGTNFRVLHIKLQGKETKMTGKIFRVPESIMRGTGEALFDHIAGCMAKFMGENDLKDAQKLPLGFTFSFPCEQEGLTKGKLVTWTKGFKASGVEGVDVVTLLHEACHRRKDIDIDVVALLNDTVGTLMACAFQENSCQIGVIVGTGTNACYMERLDRIPKLAGYVDEHGVTPEEMIINTEWGAFGDDGALDFLRTEWDEVVDRESINPGQHLYEKMISGMYMGECARVVLEDLAKQGLLFGGNSDAISVPHCFPTKFVSEIDSDLLEDDDRTFQKTYQILEDIGVEMITANDCANVAYVCSLISTRAAHLTAAGIAMLLNRMNKKHVTVGVDGSVYRFHPTYPTLLDAKIGELIVGDIEYKLMLSEDGSGRGAALVAAVATRLKEEKLAASLSSSSSNQ” the “soluble on expression in E. coli” value was “not soluble”. With “MSSKEQKTPNEQVSEEMENTAEQQVEATQETGECVDPRVAELEVQLSDALQRERESLLRAKAEVENIRRRTELDVEKAHKFALERFSSELLPVIDNLERALDTADKTNTELISMIEGVELTLKSLLDAVGKFGIEVVGETHVPFNPEVHQAMTMLESADHEPNHVMMVMQKGYTLNGRLLRPAMVAVSKAKS” the “soluble on expression in E. coli” value was “not soluble”.
